Test results taken from publication PMC5733394, “A J-Protein Co-chaperone Recruits BiP to Monomerize IRE1 and Repress the Unfolded Protein Response” (Cell, 2017).

T1: IRE1^LD-GST (human, UniProt O75460 19-486)
T1 construct: IRE1α, human, entire luminal and transmembrane domains, residues 19-486; the cytosolic effector domain is replaced by GST; also called IRE1α luminal and transmembrane domain fused to cytosolic GST; source: ΔERdj4 CHO cells, transfected, in lysate; not shown: GST, C-terminal, kept
T1 sequence (looked up): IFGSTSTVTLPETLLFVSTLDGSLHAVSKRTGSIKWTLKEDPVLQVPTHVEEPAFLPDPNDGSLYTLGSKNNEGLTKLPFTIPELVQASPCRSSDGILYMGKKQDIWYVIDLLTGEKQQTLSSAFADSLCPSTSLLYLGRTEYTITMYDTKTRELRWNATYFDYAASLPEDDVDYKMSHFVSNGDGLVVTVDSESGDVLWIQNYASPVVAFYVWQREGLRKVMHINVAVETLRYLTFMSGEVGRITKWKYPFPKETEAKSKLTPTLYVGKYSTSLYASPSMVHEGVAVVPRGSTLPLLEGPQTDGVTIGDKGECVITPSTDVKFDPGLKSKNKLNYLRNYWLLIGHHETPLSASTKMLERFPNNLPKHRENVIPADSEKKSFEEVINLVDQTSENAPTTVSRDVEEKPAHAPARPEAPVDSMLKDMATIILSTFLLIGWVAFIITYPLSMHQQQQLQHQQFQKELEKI


Assays:
[1] = molecular target: the molecule itself; experiment: cross-linking; spontaneous Q105C-Q105C disulfide of IRE1^(LD Q105C)-GST in transfected ΔERdj4 CHO cells (alone or with ERdj4 or ERdj4^QPD); glutathione Sepharose; non-reducing SDS-PAGE and immunoblot
IRE1^LD-GST = molecular target: T1, IRE1^LD-GST; experiment: pull-down; GST fusions recovered on glutathione Sepharose 4B from lysates of transfected ΔERdj4 CHO cells (co-transfected with ERdj4, ERdj4^QPD or ERdj6 where indicated); ATP-depleting lysis buffer; endogenous BiP by immunoblot; where indicated beads incubated 5 min with 3 mM ATP; details: partners not purified

fold recovery of BiP with co-transfected WT ERdj4 against ERdj4^QPD (IRE1^LD-GST) [fold]	Binder	fold decrease of the disulfide-linked dimeric fraction with co-transfected WT ERdj4 [1] [fold]	stoichiometry N [1]
	IRE1^(LD Q105C)-GST (domain or fragment, human, UniProt O75460 19-486, looked up, Q105C-Q105C disulfide between two copies in the dimeric species, IRE1α, human, luminal and transmembrane domains as in IRE1^LD-GST (residues 19-486), with Q105C; a modified version of IRE1^LD-GST; source: ΔERdj4 CHO cells, transfected, in lysate; not shown: GST, C-terminal, kept) IFGSTSTVTLPETLLFVSTLDGSLHAVSKRTGSIKWTLKEDPVLQVPTHVEEPAFLPDPNDGSLYTLGSKNNEGLTKLPFTIPELVCASPCRSSDGILYMGKKQDIWYVIDLLTGEKQQTLSSAFADSLCPSTSLLYLGRTEYTITMYDTKTRELRWNATYFDYAASLPEDDVDYKMSHFVSNGDGLVVTVDSESGDVLWIQNYASPVVAFYVWQREGLRKVMHINVAVETLRYLTFMSGEVGRITKWKYPFPKETEAKSKLTPTLYVGKYSTSLYASPSMVHEGVAVVPRGSTLPLLEGPQTDGVTIGDKGECVITPSTDVKFDPGLKSKNKLNYLRNYWLLIGHHETPLSASTKMLERFPNNLPKHRENVIPADSEKKSFEEVINLVDQTSENAPTTVSRDVEEKPAHAPARPEAPVDSMLKDMATIILSTFLLIGWVAFIITYPLSMHQQQQLQHQQFQKELEKI	2.5	2
2.5	endogenous BiP (CHO cells) (natural protein, BiP, the ER luminal Hsp70, Chinese hamster, endogenous in CHO cells; detected by immunoblot with anti-hamster BiP serum; source: endogenous, CHO cell lysate) not shown		
